According to article PMC5651247, “Factor H-Related (FHR)-1 and FHR-2 Form Homo- and Heterodimers, while FHR-5 Circulates Only As Homodimer in Human Plasma” (Frontiers in Immunology, 2017):

B1: Recombinant human FHR-2 (rFHR-2), C-terminal 6×His (natural protein, UniProt P36980 19-270, looked up)
chain: EAMFCDFPKINHGILYDEEKYKPFSQVPTGEVFYYSCEYNFVSPSKSFWTRITCAEEGWSPTPKCLRLCFFPFVENGHSESSGQTHLEGDTVQIICNTGYRLQNNENNISCVERGWSTPPKCRSTISAEKCGPPPPIDNGDITSFLLSVYAPGSSVEYQCQNLYQLEGNNQITCRNGQWSEPPKCLDPCVISQEIMEKYNIKLKWTNQQKLYSRTGDIVEFVCKSGYHPTKSHSFRAMCQNGKLVYPSCEEK
modifications: DyLight 488 or DyLight 594, 3 to 4 labels per monomer (the labelled copies of the FRET assays; unlabelled where added in excess and in the ELISA)
notes: Complement factor H-related protein 2 (FHR-2), human; Labelled and unlabelled copies of the same construct are kept as one molecule; also called rFHR-2^488; rFHR-2^594; not shown: 6×His, C-terminal, kept

Legend:
[1] = target: B1; assay: FRET or BRET; monomer exchange: pre-equilibrated 488- and 594-labelled protein, then a >5 times molar excess of unlabelled rFHR added; loss of FRET signal followed; 37°C, PBS with 1 mg/mL IVIg; first-order exponential fit; settings: both partners purified
[2] = target: the molecule itself; assay: as above
[3] = target: the molecule itself; assay: FRET or BRET; monomer exchange: equimolar DyLight 488- and 594-labelled protein mixed and followed in time; 37°C, 200 ng/mL in degassed PBS with 1 mg/mL IVIg; first-order exponential fit

Row | Binder | observed rate constant k of monomer exchange [1] [s⁻¹] | observed rate constant k of monomer exchange [2] [s⁻¹] | dissociation half-life [3] [min]
1 | Recombinant human FHR-1 (rFHR-1), CFHR1*A allotype, C-terminal 6×His (natural protein, UniProt Q03591 19-330, looked up, also called native rFHR-1; unlabeled rFHR-1; not shown: 6×His, C-terminal, kept) EATFCDFPKINHGILYDEEKYKPFSQVPTGEVFYYSCEYNFVSPSKSFWTRITCTEEGWSPTPKCLRLCFFPFVENGHSESSGQTHLEGDTVQIICNTGYRLQNNENNISCVERGWSTPPKCRSTDTSCVNPPTVQNAHILSRQMSKYPSGERVRYECRSPYEMFGDEEVMCLNGNWTEPPQCKDSTGKCGPPPPIDNGDITSFPLSVYAPASSVEYQCQNLYQLEGNKRITCRNGQWSEPPKCLHPCVISREIMENYNIALRWTAKQKLYLRTGESAEFVCKRGYRLSSRSHTLRTTCWDGKLEYPTCAKR | 0.00053 |  | 
2 | B1 |  | 0.0004 | < 30
3 | Recombinant human FHR-5 (rFHR-5), C-terminal 6×His (natural protein, UniProt Q9BXR6 19-569, looked up, DyLight 488 or DyLight 594, 3 to 4 labels per monomer (the labelled copies of the FRET assays; unlabelled where added in excess), Complement factor H-related protein 5 (FHR-5), human; Labelled and unlabelled copies of the same construct are kept as one molecule; also called rFHR-5^488; rFHR-5^594; not shown: 6×His, C-terminal, kept) EGTLCDFPKIHHGFLYDEEDYNPFSQVPTGEVFYYSCEYNFVSPSKSFWTRITCTEEGWSPTPKCLRMCSFPFVKNGHSESSGLIHLEGDTVQIICNTGYSLQNNEKNISCVERGWSTPPICSFTKGECHVPILEANVDAQPKKESYKVGDVLKFSCRKNLIRVGSDSVQCYQFGWSPNFPTCKGQVRSCGPPPQLSNGEVKEIRKEEYGHNEVVEYDCNPNFIINGPKKIQCVDGEWTTLPTCVEQVKTCGYIPELEYGYVQPSVPPYQHGVSVEVNCRNEYAMIGNNMITCINGIWTELPMCVATHQLKRCKIAGVNIKTLLKLSGKEFNHNSRIRYRCSDIFRYRHSVCINGKWNPEVDCTEKREQFCPPPPQIPNAQNMTTTVNYQDGEKVAVLCKENYLLPEAKEIVCKDGRWQSLPRCVESTAYCGPPPSINNGDTTSFPLSVYPPGSTVTYRCQSFYKLQGSVTVTCRNKQWSEPPRCLDPCVVSEENMNKNNIQLKWRNDGKLYAKTGDAVEFQCKFPHKAMISSPPFRAICQEGKFEYPICE |  | 0.0012 | < 30
